Earlier results, collected in PMC5074778.

Biological target: IL-6 receptor (Homo sapiens) (UniProt P08887)
Sequence of UniProt P08887 (P08887 20-365): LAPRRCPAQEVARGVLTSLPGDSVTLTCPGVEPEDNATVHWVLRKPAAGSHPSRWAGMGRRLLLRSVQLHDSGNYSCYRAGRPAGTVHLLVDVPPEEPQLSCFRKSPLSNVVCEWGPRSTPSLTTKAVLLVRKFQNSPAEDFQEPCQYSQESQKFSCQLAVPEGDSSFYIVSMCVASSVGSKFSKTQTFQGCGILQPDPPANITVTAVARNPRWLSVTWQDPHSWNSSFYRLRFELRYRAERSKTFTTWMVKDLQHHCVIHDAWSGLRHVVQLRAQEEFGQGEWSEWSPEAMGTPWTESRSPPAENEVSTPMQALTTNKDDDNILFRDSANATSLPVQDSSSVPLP

Tocilizumab
Kd: 2.5 nM
